# Laboratory results published in patent publication US20130189218A1, “PHARMACEUTICAL FORMULATIONS FOR FUMAGILLIN DERIVATIVE-PHF CONJUGATES” (Mersana Therapeutics, Inc., priority 2011, published 2013).
# Columns and labels:
# Type in all cases: physicochemical
# [1] = Peak molecular weight at ~3 and ~60 mg/ml (concentration dependence)
# Method: (§1) The molecular weight distributions of Composition C conjugate, PHF and PHF-GA were measured by high performance size exclusion chromatography (HPSEC) with RI detection. Separation was carried out on a GE Healthcare Superose 6 column using 50 mM pH=7.4 phosphate 0.9% NaCl as an fluent. Dextran standards (American Polymer Standards Corporation) were used to establish a calibration curve of known molecular weight vs. retention time. Molecular weight distributions (weight average molecular weight (“Mw”), D90, D50, D10) were calculated based on the polysaccharide standard curve.
# Peak molecular weight values were measured for Composition C batches in solution at ˜3 mg/ml and at ˜60 mg/ml.
# [2] = HPSEC trace / molecular weight distribution of different Compound D loading conjugates
# Method: as §1
# Composition C batches were analyzed by high performance size exclusion chromatography. […] Batches B and E have the additional desirable property of relatively high Compound D loading; approximately 3-fold higher than Batches C and F.
# [3] = Solution appearance of Composition C batches
# Method: Physical properties of select Composition C batches were measured as described in the Methods section.
smiles,measurement,setting,value
CO[C@H]1[C@H](C2(C)OC2CC=C(C)C)[C@]2(CC[C@H]1OC(=O)NCc1ccc(NC(=O)CCCC(=O)O)cc1)CO2 (some centres unmarked) [Compound D],% Change,[1]; Mp at ~60 mg/ml vs ~3 mg/ml,+58%
same,Mp at ~3 mg/ml,[1]; ~3 mg/ml in solution,57.8 kDa
same,Mp at ~60 mg/ml,[1]; ~60 mg/ml in solution,91.2 kDa
same,SEC Trace,[2],2 peaks (high
same,Solution Appearance,[3],Very slight
